T1: human MerTK (human, UniProt Q12866 21-999)
T1 construct: endogenous receptor on cells; also called human MerTK endogenously expressed on SK-MEL-5 cells; MerTK on human macrophages
T1 sequence: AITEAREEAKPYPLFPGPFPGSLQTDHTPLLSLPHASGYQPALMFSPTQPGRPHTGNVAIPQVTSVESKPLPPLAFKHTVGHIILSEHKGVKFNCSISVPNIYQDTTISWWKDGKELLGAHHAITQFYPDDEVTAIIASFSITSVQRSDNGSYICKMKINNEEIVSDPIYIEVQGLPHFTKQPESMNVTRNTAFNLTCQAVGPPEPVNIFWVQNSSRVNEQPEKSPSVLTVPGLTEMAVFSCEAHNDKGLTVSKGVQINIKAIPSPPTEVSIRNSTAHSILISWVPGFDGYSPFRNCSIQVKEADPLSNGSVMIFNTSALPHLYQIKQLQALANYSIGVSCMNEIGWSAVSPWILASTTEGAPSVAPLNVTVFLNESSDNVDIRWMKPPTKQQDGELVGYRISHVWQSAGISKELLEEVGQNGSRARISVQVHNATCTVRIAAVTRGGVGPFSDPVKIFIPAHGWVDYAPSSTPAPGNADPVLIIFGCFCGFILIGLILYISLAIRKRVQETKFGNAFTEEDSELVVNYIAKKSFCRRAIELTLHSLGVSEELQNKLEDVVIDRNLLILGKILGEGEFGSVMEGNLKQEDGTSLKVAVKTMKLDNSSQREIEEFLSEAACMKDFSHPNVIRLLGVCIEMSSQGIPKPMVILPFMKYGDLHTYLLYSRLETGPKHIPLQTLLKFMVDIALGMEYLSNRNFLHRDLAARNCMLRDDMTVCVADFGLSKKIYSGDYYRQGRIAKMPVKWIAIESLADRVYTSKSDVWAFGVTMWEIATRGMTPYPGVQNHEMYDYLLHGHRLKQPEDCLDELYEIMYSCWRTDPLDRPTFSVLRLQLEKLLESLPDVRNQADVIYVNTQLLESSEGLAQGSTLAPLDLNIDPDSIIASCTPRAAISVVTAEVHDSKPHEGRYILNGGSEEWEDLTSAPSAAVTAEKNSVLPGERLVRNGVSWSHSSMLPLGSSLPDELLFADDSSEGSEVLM

T2: Recombinant human MerTK-human Fc Chimera protein (human, UniProt Q12866 26-499, limits assumed)
T2 construct: bought construct; also called MerTK-Fc (R&D systems, Cat #391-MR-100)
T2 sequence: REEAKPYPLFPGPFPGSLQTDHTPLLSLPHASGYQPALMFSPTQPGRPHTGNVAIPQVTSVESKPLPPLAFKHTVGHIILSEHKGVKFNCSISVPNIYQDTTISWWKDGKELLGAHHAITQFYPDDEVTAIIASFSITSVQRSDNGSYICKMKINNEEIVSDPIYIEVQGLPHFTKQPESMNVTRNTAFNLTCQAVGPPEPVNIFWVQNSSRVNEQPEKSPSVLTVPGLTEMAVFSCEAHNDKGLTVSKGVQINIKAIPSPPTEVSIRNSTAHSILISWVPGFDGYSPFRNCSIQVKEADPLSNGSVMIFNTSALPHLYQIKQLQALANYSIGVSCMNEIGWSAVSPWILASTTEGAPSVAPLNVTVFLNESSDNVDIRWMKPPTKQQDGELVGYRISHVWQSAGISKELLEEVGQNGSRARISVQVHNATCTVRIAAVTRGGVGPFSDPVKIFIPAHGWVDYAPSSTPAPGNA


Columns and labels:
human MerTK = target: T1, human MerTK; experiment: FACS, SK-MEL-5 cells, 10 ug/ml
Description: To determine whether recombinant anti-human MerTK antibodies of the present disclosure bind to human MerTK endogenously expressed on SK-MEL-5 cells and CHO cells overexpressing mouse MerTK (CHO-muMerTK OE cells), as compared to A375 and parental CHO cells as negative controls, the following experiments were performed. SK-MEL-5 cells, A375 cells, CHO-muMerTK OE cells, and CHO parental cells were plated at 100,000 cells/well. Anti-MerTK antibodies were added to the cells at 10 μg/ml. After 60 minutes on ice, cells were washed and then stained with PE-conjugated goat anti-human IgG antibody (Southern Biotech Cat #2040-09, Birmingham, AL) in the presence of Fc block solution on ice for 30 minutes, and then washed twice with cold FACS buffer (2% FBS in PBS). Mouse anti-human MerTK-PE conjugated (Biolegend, Clone 590H11G1E3) or anti-mouse MerTK-PE conjugated (ThermoFisher, Clone DS5MMER) antibodies were used as positive controls. Stained cells were acquired on a BD FACS Canto II cytometer and the mean fluorescence intensity (MFI) was calculated with FlowJo.

[1] = target: T2, Recombinant human MerTK-human Fc …; experiment: blocking ELISA, Gas6-His on MerTK-Fc, Ab 66.6 nM, isotype=100%
Description: Briefly, rabbit anti-human IgG antibody (Jackson ImmunoResearch, Cat #309-005-008) was coated at 2 μg/ml onto high-protein binding plates at 4° C. overnight. After washing with 0.05% Tween20 in PBS three times, 5% BSA in PBS was added for 1 hour. Recombinant human MerTK-human Fe Chimera protein (R&D systems, Cat #391-MR-100) was added at 2 μg/ml for 1 hour and plates were washed before the addition of 40 μl of anti-MerTK hybridoma supernatants and 40 μl of His tag-conjugated recombinant Gas6 (R&D systems, Cat #885-GSB-050) at 3 μg/ml or His tag-conjugated recombinant ProS (R&D systems, Cat #9489-PS-100) at 20 μg/ml. After a further incubation for 1 hour, plates were washed and incubated for 1 hour with HRP-conjugated anti-6×His tagged antibody (Abcam, Cambridge, MA, Cat #ab1187). Plates were then washed and an HRP substrate, TMB, was added to develop the plates. The reaction was stopped by adding 50 μl 2N H₂SO₄ and the OD was measured using a spectrophotometer (BioTek).
Anti-MerTK antibodies were titrated to a final concentration from 66.6 nM to 4 pM and tested against anti-human MerTK antibody M6 (disclosed in WO2016/106221) or isotype control antibody.

Binder	MFI (human MerTK) [MFI]	Percent Gas6 ligand binding [1] [%]
MTK-213 (antibody, human IgG1, V domains shown) VH: QVQLQQPGAELVKPGASVKMSCKASGYTFTSYWITWVKQRPGQGHEWIGEIYPGIGSTNYNEKFKSKATLTVDTSSRTAYMQLSSLTSEDSAVYFCARGAYTKYYFDYWGQGTTLTVSS VL: DIVMTQSHKFMSTSVGDRVSITCKASQDVGDAVAWYQQKPGQTPKLLIYWASTRHTGVPDRFTGSGSGTDFTLTISNVQSEDLADYFCQQYSSYLMYTFGGGTKLEIK	40300	102
MTK-219 (antibody, human IgG1, V domains shown) VH: QVQLQQSGADLMKPGASVKLSCKATGNTFTGYWIEWVKQRPGHGLEWIGEILTGSGSTNYNERFKGKATFTADTSSNTAYMQLSSLTTEDSAIYYCAGSYFTNSWFPYWGQGSLVTVSA VL: DIVLTQSPASLAVSLGQRATISCRASESVDSYGNSFMHWYQQKPGQPPKLLIYRAYTLESGIPARFSGSGSRTDFTLTINPVEADDVATYYCQQSNEDPRTFGGGTKLEIK	26800	106
MTK-210 (antibody, human IgG1, V domains shown) VH: QVQLQQSGPELVKPGASVKISCKASDYEFSRSWMNWVKQRPGKGLEWIGRIYPGDGDTNYNGKFKGKATLTADKSSNTAYMQLNSLTSEDSAVYFCARKGGYYYSISNYFDYWGQGTTLTVSS VL: QIVLTQSPAIMSASPGVKVTMTCSASSSVSYMHWYQQKPGSSPRLLIYDTSNLASGVPVRFSGSGSGTSYSLTISRMEAEDAATYYCQQWSSYPPYTFGGGTKLEIK	29900	114
MTK-212 (antibody, human IgG1, V domains shown) VH: QVQLQQSGPELVKPGASVKISCKASGYAFSSSWVNWVKQRPGKGLEWIGRIYPGDGDSNYNGNFKGKATLTADKSSNTAYLQLSSLTSEDSAVYFCARKSHFIYYTLDYWGQGTPVTVSS VL: DIVMTQSHKFKSTSVGDRVSIACKASQDVGTSVAWYQQKPGKSPKLLIYWASSRHTGVPDRFTGSGSGTDFTLTISNVQSEDLTDYFCQQYSTYPYTFGGGTKLEIK	8080	122
MTK-206 (antibody, human IgG1, V domains shown) VH: QVQLQQSGAELARPGASVKMSCKASGYTFTSYTMHWVKQRPGQGLEWIGYINPSSGYIKNSQKFKDKATLTADKSSSTAYMQLSSLTSEDSAVYYCARTVYGYYGSSPDYWGQGTTLTVSS VL: DIQMTQSPSSLSASLGERVSLTCRASQDIGSNLNWLQQEPDGTIKRLIYATSSLESGVPKRFSGSRSGSDYSLTISSLESEDFVDYYCLQYDSSPWTFGGGTKLEIK	3270	103
MTK-202 (antibody, human IgG1, V domains shown) VH: EVQLVESGGGLVKPGGSLKLSCAASGFTFSDFGMHWVRQVPEKGLEWVAFISGGSNTIYYTDTVKGRFTISRDNAKNTLFLQMTSLRSEDTAMYYCVRNGNSFAYWGQGTLVTVSA VL: NIMMTQSPSSLAVSAGEKVTMNCKSSQSVLYSSNQKNYLAWYQQKPGQSPKLLIYWASTRESGVPDRFTGSGSGTDFTLTISNIQAEDLAIYYCHQYFFSWTFGGGTKLEIK	46100	101
MTK-204 (antibody, human IgG1, V domains shown) VH: EVQLVESGGGLVKPGGSLKLSCAASGFTFSDYGMHWVRQAPEKGLEWVAYISSGTSTIYYEDTVKGRFTISRDNAKNTLFLQMTSLRSEDTAMYYCARGGLLFDYWGQGTTLTVSS VL: NIMMTQSPSSLAVSAGEKVTMSCKSSQSVLYSSNQKNYLAWYQQKPGQSPKLLIQWASTRESGVPDRFTGSGSETDFTLTIRSVQAEDLAVYYCHQYFSSWTFGGGTKLEIK	33800	121

Next, values leading:

MFI (human MerTK) [MFI]	Percent Gas6 ligand binding [1] [%]	Binder
29000	97	MTK-220 (antibody, V domains shown) VH: EVQLVESGGGLVKPGGSLKLSCAASGFTFSDYGMHWVRQAPEKGLEWVAFISGGSGTIYYEDTVKGRFTISRDNAKNTLFLQMTSLRSEDTAMYYCTRGGNYFDYWGQGTTLTVSS VL: NIMLTQSPSSLAVSAGEKVTMTCKSSQSVLYSSNQKNYLAWYQQKPGQSPKLLIYWASTRESGVPDRFTGSGSGTDFTLTISNVQAEDLAVYYCHQYFSSWTFGGGTKLEIK
27500	105	MTK-222 (antibody, human IgG1, V domains shown) VH: QVQLQQSGADLMKPGASVKLSCKATGYTFTGYWIEWVKQRPGHGLEWIGEILTGSGSSNYNEKFKGKATFTADSSSNTAFMQLSSLTTEDSAIYYCAGSYYSNSWFPYWGQGSLVTVSA VL: DIVLTQSPVSLAVSLGQRATISCRASESVDSYGSSFMHWYQQKPGQPPKLLIYRASSLESGIPARFSGSGSRTDFTLTINPVETDDVATYYCQQSNEDPRTFGGGTKLEIK
43300	104	MTK-216 (antibody, human IgG1, V domains shown) VH: EVQLVESGGGLVKPGGSLKLSCAASGFTFSDYGMHWVRQAPEKGLEWVAFISSGSTTIYYADTVKGRFTISRDNAKNTLILQMTSLRSEDTAIYYCTRGGFHLDYWGQGTTLTVSS VL: SIMMTQSPSSLAVSAGEKVTMGCKSSQSVLYSANQQNYLAWYQQKPGQSLKLLIYWASTRESGVPDRFTGSGSGTDFTLTISSVQAEDLAVYYCHQYFSSWTFGGGTKLEIK
39000	116	MTK-231 (antibody, human IgG1, V domains shown) VH: DVQLQESGPGLVKPSQSLSLTCSVTGYSITSGYYWNWIRQFPGNKLEWMGYISYDGTYNYHPSLKNRISITRDTSKNQFFLTLNSVTTEDTATFYCTRGGGYWGQGTSVTVSS VL: DVVMTQTPLSLPVSLGDQASISCRSSQSLVHSDGNTYLHWYLQKPGQSPKLLIYKVSNRFSGVPDRFSGSGSGTDFTLKISRLEAEDLGIYFCSQTTHIPLTFGSGTKLEIK
19000	110	MTK-215 (antibody, human IgG1, V domains shown) VH: EVQLVESGGGLVKPGGSLKLSCAASGFIFSDYGMHWVRQAPEKGLEWVAYISSGSSTIYYGDTVKGRFTISRDNAKNTLFLQMTSLRSEDTAMYYCAKGGRYGAMDYWGHGTSVTVSS VL: DIVLTQSPATLSVTPGDSVSLSCRASQSISNNLHWYQQKSHESPRLLIKNPSQSISGIPSRFGARGSGTDFTLIINSVETEDLGVYFCQQSNSWPFTFGSGTKLEIK

Source: patent US20240294650A1 (Alector, published 2024)
